Laboratory results from publication PMC2835750, “A Direct Interaction with NEDD1 Regulates γ-Tubulin Recruitment to the Centrosome” (PLoS ONE, 2010).
Substitutions are numbered along the chain they refer to. Numbers in names are those of the source.

B1: NEDD1 fragment (residues 549–660) (domain or fragment, human, UniProt Q8NHV4 549-660, looked up)
chain: STPNPKIASSVTAGVASSLSEKIADSIGNNRQNAPLTSIQIRFIQNMIQETLDDFREACHRDIVNLQVEMIKQFHMQLNEMHSLLERYSVNEGLVAEIERLREENKRLRAHF
notes: NEDD1, human, residues 549-660; predicted mass 12.8 kDa; also called additional fragment of NEDD1 that included residues 549–660
B2: NEDD1 CTD L642Q, GST removed (domain or fragment, human, UniProt Q8NHV4 572-660, looked up)
chain: ADSIGNNRQNAPLTSIQIRFIQNMIQETLDDFREACHRDIVNLQVEMIKQFHMQLNEMHSLLERYSVNEGQVAEIERLREENKRLRAHF
notes: source: E. coli BL21 star (DE3), purified (glutathione resin, thrombin, SEC)
B3: NEDD1 CTD Y636A/S637A, GST removed (domain or fragment, human, UniProt Q8NHV4 572-660, looked up)
chain: B2 chain with Y65A, S66A, Q71L
notes: also called YS (Y636A/S637A) mutant NEDD1; source: E. coli BL21 star (DE3), purified (glutathione resin, thrombin, SEC)
B4: NEDD1 CTD (residues 572–660), GST removed (domain or fragment, human, UniProt Q8NHV4 572-660, looked up)
chain: B2 chain with Q71L
notes: calculated mass 10.5 kDa; also called NEDD1 CTD WT; purified CTD; source: E. coli BL21 star (DE3), purified (glutathione resin, thrombin, SEC)
B5: NEDD1 CTD L642Q/L649Q/L656Q (3xLQ), GST removed (domain or fragment, human, UniProt Q8NHV4 572-660, looked up)
chain: B2 chain with L78Q, L85Q
notes: also called triple 3×LQ; triple 3xLQ; source: E. coli BL21 star (DE3), purified (glutathione resin, thrombin, SEC)

Tests used:
[1] = target: the molecule itself; experiment: SEC-MALS; data not shown; single peak not affected by dilution; oligomeric state
[2] = target: the molecule itself; experiment: SEC-MALS; Superdex 200 HR 10/30, 50 mM NaP, 300 mM NaCl, 1 mM DTT, pH 8.0; oligomeric state

| Protein | stoichiometry N [1] | stoichiometry N [2] |
| --- | --- | --- |
| B1 | 4 |  |
| B2 |  | 4 |
| B3 |  | 4 |
| B4 |  | 4 |
| B5 |  | 4 |
